Laboratory results published in IntAct's records for PubMed 20543138.

B1: General transcription factor 3C polypeptide 5 (Homo sapiens), Q9Y5Q8 (parent)
chain: MAAEAADLGLGAAVPVELRRERRMVCVEYPGVVRDVAKMLPTLGGEEGVSRIYADPTKRLELYFRPKDPYCHPVCANRFSTSSLLLRIRKRTRRQKGVLGTEAHSEVTFDMEILGIISTIYKFQGMSDFQYLAVHTEAGGKHTSMYDKVLMLRPEKEAFFHQELPLYIPPPIFSRLDAPVDYFYRPETQHREGYNNPPISGENLIGLSRARRPHNAIFVNFEDEEVPKQPLEAAAQTWRRVCTNPVDRKVEEELRKLFDIRPIWSRNAVKANISVHPDKLKVLLPFIAYYMITGPWRSLWIRFGYDPRKNPDAKIYQVLDFRIRCGMKHGYAPSDLPVKAKRSTYNYSLPITVKKTSSQLVTMHDLKQGLGPSGTSGARKPASSKYKLKDSVYIFREGALPPYRQMFYQLCDLNVEELQKIIHRNDGAENSCTERDGWCLPKTSDELRDTMSLMIRQTIRSKRPALFSSSAKADGGKEQLTYESGEDEEDEEEEEEEEEDFKPSDGSENEMETEILDYV

Variants of: B1
Conditions: with mtor_human MTOR

effect of a mutation on the interaction	Variant
disrupting interaction	F109I
